According to article PMC11843584:

Legend:
[1] = target: BID (BH3-interacting domain death agonist), N-terminal His6-tagged, wild type (human) (UniProt P55957); assay: light-scattering titration; peptide titrated into 5 μM BID, scattered photons of a 280-nm beam; 20 mM sodium acetate pH 6.3; also at 10, 24 and 37 °C, with 0.25% or 1% OG, and in 20 mM potassium phosphate pH 5.5 to 8.0
[2] = target: Cleaved TEV-BID (p7 and tBID domains after TEV protease cleavage) (human) (UniProt P55957); assay: thioflavin T fluorescence; 5 μM protein with 50 μM peptide, ThT emission spectra against protein alone, peptide alone and buffer

Sequence of UniProt P55957 (P55957 whole entry, the tested form may be a part): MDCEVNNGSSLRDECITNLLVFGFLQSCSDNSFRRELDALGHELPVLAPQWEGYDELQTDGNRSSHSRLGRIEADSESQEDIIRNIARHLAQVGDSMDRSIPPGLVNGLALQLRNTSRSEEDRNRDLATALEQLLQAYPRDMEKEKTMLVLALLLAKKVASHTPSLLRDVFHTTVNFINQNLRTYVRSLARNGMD

Humanin (HN), wild-type peptide gave a fold increase in light scattering at pH 8.0 [1] of 8 fold, a fold increase in light scattering with 1% (w/v) OG against no detergent [1] of 5 fold and a fold increase in scattered photons at 37 °C against 24 °C [1] of 2.5 fold. It also gave a fold increase in scattered photons at neutral pH against pH 6.0 [1] of 4 fold, a protein-to-peptide ratio at the plateau of scattered photons (protein to peptide) [1] of 2 and an increase in ThT fluorescence against WT BID [2] of 15%.
